Measured values as given in paper PMC7311918.

Tests used:
[1] = molecular target: MERS-CoV S 2P trimer (S ectodomain, residues 19-1294) (MERS-CoV) (UniProt K9N5Q8); experiment: SEC-MALS
[2] = molecular target: SARS-CoV S 2P trimer (S ectodomain, residues 12-1193) (SARS-CoV) (UniProt P59594); experiment: SEC-MALS

| Substance | stoichiometry N [1] | stoichiometry N [2] |
| --- | --- | --- |
| MERS-CoV S 2P trimer (S ectodomain, residues 19-1294) (from UniProt K9N5Q8 19-1294) (natural protein) | 3 | – |
| SARS-CoV S 2P trimer (S ectodomain, residues 12-1193) (from UniProt P59594 12-1193) (natural protein) | – | 3 |
